Assay results: patent US20100035825

Columns and labels:
[1] = target: T1, Ac-KKPD^105-CHO
T1 chain: KKPD

[2] = target: T2, Ac-KE^217VD-CHO
T2 chain: KEVD

B1: purified recombinant procaspase 8 (human, Alexis Biochemicals) (protein)
chain: SESQTLDKVYQMKSKPRGYCLIINNHNFAKAREKVPKLHSIRDRNGTHLDAGALTTTFEELHFEIKPHDDCTVEQIYEILKIYQLMDHSNMDCFICCILSHGDKGIIYGTDGQEAPIYELTSQFTGLKCPSLAGKPKVFFIQACQGDNYQKGIPVETDSEEQPYLEMDLSSPQTRYIPDEADFLLGMATVNNCVSYRNPAEGTWYIQSLCQSLRERCPRGDDILTILTEVNYEVSNKDDKKNMGKQMPQPTFTLRKKLVFPSD
[1]
  in vitro self-activation of caspase 8 (colorimetric substrate, tetrapeptides at 200 µM): inhibited
[2]
  in vitro self-activation of caspase 8 (colorimetric substrate, tetrapeptides at 200 µM): inhibited
